From paper PMC11391049 (Life Science Alliance, 2024)

T1: β4-S142F (pre1-1) with FLAG-6xHis-tag (S. cerevisiae, UniProt P22141 1-198, S142F)
T1 construct: Pre1/β4, S. cerevisiae, mutant version of the pre1-1 strain; also called pre1-1-FH; Pre1/β4 (β4-S142F)
T1 sequence: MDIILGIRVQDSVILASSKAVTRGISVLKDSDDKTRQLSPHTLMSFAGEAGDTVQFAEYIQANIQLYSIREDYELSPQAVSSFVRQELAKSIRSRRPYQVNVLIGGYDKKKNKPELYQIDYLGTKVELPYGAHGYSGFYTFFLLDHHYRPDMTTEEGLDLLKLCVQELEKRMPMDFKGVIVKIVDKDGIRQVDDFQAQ

T2: β5 precursor (β5-subunit with unprocessed β5-propeptide) (S. cerevisiae, UniProt P30656 1-287)
T2 construct: β5/Pre2, S. cerevisiae, unprocessed precursor with the whole 75-residue propeptide (all but -65, -64 and -13 resolved); numbers count on: the mature subunit (Thr1 = +1, propeptide residues negative); also called Pre2; precursor form of the β5-subunit
T2 sequence (looked up): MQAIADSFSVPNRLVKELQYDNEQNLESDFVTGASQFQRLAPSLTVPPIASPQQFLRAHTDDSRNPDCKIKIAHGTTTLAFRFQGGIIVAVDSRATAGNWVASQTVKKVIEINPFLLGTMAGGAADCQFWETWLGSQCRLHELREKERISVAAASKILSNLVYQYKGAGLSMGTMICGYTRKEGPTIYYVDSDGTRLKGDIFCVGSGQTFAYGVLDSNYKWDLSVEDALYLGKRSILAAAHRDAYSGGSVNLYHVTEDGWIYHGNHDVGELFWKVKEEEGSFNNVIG

B1: β1-subunit, autocatalytically cleaved (mature, in pre1-1CP) (natural protein, S. cerevisiae, UniProt P38624 20-215, looked up)
chain: TSIMAVTFKDGVILGADSRTTTGAYIANRVTDKLTRVHDKIWCCRSGSAADTQAIADIVQYHLELYTSQYGTPSTETAASVFKELCYENKDNLTAGIIVAGYDDKNKGEVYTIPLGGSVHKLPYAIAGSGSTFIYGYCDKNFRENMSKEETVDFIKHSLSQAIKWDGSSGGVIRMVVLTAAGVERLIFYPDEYEQL
notes: β1/Pre3, S. cerevisiae, mature subunit beginning at Thr1; numbers count on: the mature subunit; also called Pre3
B2: β2-subunit, autocatalytically processed (natural protein, S. cerevisiae, UniProt P25043 30-261, looked up)
chain: TTIVGVKFNNGVVIAADTRSTQGPIVADKNCAKLHRISPKIWCAGAGTAADTEAVTQLIGSNIELHSLYTSREPRVVSALQMLKQHLFKYQGHIGAYLIVAGVDPTGSHLFSIHAHGSTDVGYYLSLGSGSLAAMAVLESHWKQDLTKEEAIKLASDAIQAGIWNDLGSGSNVDVCVMEIGKDAEYLRNYLTPNVREEKQKSYKFPRGTTAVLKESIVNICDIQEEQVDITA
notes: β2/Pup1, S. cerevisiae, mature subunit beginning at the active site Thr1 after cleavage of the Gly-1/Thr1 bond (29-residue propeptide removed); numbers count on: the mature subunit; also called Pup1; mature β2
B3: α6-subunit (natural protein, S. cerevisiae, UniProt P40302 1-234, looked up)
chain: MFRNNYDGDTVTFSPTGRLFQVEYALEAIKQGSVTVGLRSNTHAVLVALKRNADELSSYQKKIIKCDEHMGLSLAGLAPDARVLSNYLRQQCNYSSLVFNRKLAVERAGHLLCDKAQKNTQSYGGRPYGVGLLIIGYDKSGAHLLEFQPSGNVTELYGTAIGARSQGAKTYLERTLDTFIKIDGNPDELIKAGVEAISQSLRDESLTVDNLSIAIVGKDTPFTIYDGEAVAKYI
notes: 20S proteasome subunit α6, S. cerevisiae
B4: Ump1 (natural protein, S. cerevisiae, UniProt P38293 1-148, looked up)
chain: MNIVPQDTFKSQVSTDQDKSVLSSAVPSLPDTLRQQEGGAVPLSTQLNDRHPLESTLKNWETTQRQRQMEQYRQIFGIAEPMKRTMEMEIVNRTDFNPLSTNGSIHRDILLNKECSIDWEDVYPGTGLQASTMVGDDVHSKIEKQLGI
notes: residues 126-131 not resolved; two Ump1 molecules are encased in one late-PC, one in each half; also called ScUmp1; Ump1 chaperone
B5: β6-subunit (natural protein, S. cerevisiae, UniProt P23724 20-241, looked up)
chain: QFNPYGDNGGTILGIAGEDFAVLAGDTRNITDYSINSRYEPKVFDCGDNIVMSANGFAADGDALVKRFKNSVKWYHFDHNDKKLSINSAARNIQHLLYGKRFFPYYVHTIIAGLDEDGKGAVYSFDPVGSYEREQCRAGGAAASLIMPFLDNQVNFKNQYEPGTNGKVKKPLKYLSVEEVIKLVRDSFTSATERHIQVGDGLEILIVTKDGVRKEFYELKRD
notes: 20S proteasome subunit β6, S. cerevisiae, without its 19-residue propeptide (β6pro)
B6: α5-subunit (natural protein, S. cerevisiae, UniProt P32379 1-260, looked up)
chain: MFLTRSEYDRGVSTFSPEGRLFQVEYSLEAIKLGSTAIGIATKEGVVLGVEKRATSPLLESDSIEKIVEIDRHIGCAMSGLTADARSMIEHARTAAVTHNLYYDEDINVESLTQSVCDLALRFGEGASGEERLMSRPFGVALLIAGHDADDGYQLFHAEPSGTFYRYNAKAIGSGSEGAQAELLNEWHSSLTLKEAELLVLKILKQVMEEKLDENNAQLSCITKQDGFKIYDNEKTAELIKELKEKEAAESPEEADVEMS
notes: 20S proteasome subunit α5, S. cerevisiae
B7: β7-subunit (natural protein, S. cerevisiae, UniProt P30657 34-266, looked up)
chain: TQQPIVTGTSVISMKYDNGVIIAADNLGSYGSLLRFNGVERLIPVGDNTVVGISGDISDMQHIERLLKDLVTENAYDNPLADAEEALEPSYIFEYLATVMYQRRSKMNPLWNAIIVAGVQSNGDQFLRYVNLLGVTYSSPTLATGFGAHMANPLLRKVVDRESDIPKTTVQVAEEAIVNAMRVLYYRDARSSRNFSLAIIDKNTGLTFKKNLQVENMKWDFAKDIKGYGTQKI
notes: 20S proteasome subunit β7, S. cerevisiae, without its 33-residue propeptide (β7pro); the last 10 residues of the C-terminal extension are not resolved there

Legend:
[1] = molecular target: B7; assay: cryo-EM structure; uncapped, fully matured 20S pre1-1CP isolated via FLAG-6xHis on β4; 2.0 Å with C2 symmetry; details: both partners purified
[2] = molecular target: T3, Blm10 (S. cerevisiae, UniProt P43583 1-2143); assay: cryo-EM structure; native pre1-1CP-Blm10 complex copurified via FLAG-6xHis on β4; 2.4 Å, no symmetry applied; details: both partners purified
T3 construct: also called Blm10 chaperone

[3] = molecular target: T1, β4-S142F (pre1-1) with FLAG-6xHis-tag; assay: affinity purification with mass spectrometry; tandem affinity purification (FLAG, 6xHis on β4) from pre1-1 cells overexpressing Pba1-Pba2, separation by native PAGE, bands evaluated by MS; details: partners not purified
[4] = molecular target: B7; assay: cryo-EM structure; late-PC (doubly capped with Pba1-Pba2) isolated via FLAG-6xHis on β4 from pre1-1 cells; 2.1 Å with C2 symmetry, 2.3 Å without; sub-populations late-PC1 (2.7 Å) and late-PC2 (2.3 Å); details: both partners purified
[5] = molecular target: T2, β5 precursor (β5-subunit with …); assay: as above; details: both partners purified

T3 sequence (P43583 whole entry): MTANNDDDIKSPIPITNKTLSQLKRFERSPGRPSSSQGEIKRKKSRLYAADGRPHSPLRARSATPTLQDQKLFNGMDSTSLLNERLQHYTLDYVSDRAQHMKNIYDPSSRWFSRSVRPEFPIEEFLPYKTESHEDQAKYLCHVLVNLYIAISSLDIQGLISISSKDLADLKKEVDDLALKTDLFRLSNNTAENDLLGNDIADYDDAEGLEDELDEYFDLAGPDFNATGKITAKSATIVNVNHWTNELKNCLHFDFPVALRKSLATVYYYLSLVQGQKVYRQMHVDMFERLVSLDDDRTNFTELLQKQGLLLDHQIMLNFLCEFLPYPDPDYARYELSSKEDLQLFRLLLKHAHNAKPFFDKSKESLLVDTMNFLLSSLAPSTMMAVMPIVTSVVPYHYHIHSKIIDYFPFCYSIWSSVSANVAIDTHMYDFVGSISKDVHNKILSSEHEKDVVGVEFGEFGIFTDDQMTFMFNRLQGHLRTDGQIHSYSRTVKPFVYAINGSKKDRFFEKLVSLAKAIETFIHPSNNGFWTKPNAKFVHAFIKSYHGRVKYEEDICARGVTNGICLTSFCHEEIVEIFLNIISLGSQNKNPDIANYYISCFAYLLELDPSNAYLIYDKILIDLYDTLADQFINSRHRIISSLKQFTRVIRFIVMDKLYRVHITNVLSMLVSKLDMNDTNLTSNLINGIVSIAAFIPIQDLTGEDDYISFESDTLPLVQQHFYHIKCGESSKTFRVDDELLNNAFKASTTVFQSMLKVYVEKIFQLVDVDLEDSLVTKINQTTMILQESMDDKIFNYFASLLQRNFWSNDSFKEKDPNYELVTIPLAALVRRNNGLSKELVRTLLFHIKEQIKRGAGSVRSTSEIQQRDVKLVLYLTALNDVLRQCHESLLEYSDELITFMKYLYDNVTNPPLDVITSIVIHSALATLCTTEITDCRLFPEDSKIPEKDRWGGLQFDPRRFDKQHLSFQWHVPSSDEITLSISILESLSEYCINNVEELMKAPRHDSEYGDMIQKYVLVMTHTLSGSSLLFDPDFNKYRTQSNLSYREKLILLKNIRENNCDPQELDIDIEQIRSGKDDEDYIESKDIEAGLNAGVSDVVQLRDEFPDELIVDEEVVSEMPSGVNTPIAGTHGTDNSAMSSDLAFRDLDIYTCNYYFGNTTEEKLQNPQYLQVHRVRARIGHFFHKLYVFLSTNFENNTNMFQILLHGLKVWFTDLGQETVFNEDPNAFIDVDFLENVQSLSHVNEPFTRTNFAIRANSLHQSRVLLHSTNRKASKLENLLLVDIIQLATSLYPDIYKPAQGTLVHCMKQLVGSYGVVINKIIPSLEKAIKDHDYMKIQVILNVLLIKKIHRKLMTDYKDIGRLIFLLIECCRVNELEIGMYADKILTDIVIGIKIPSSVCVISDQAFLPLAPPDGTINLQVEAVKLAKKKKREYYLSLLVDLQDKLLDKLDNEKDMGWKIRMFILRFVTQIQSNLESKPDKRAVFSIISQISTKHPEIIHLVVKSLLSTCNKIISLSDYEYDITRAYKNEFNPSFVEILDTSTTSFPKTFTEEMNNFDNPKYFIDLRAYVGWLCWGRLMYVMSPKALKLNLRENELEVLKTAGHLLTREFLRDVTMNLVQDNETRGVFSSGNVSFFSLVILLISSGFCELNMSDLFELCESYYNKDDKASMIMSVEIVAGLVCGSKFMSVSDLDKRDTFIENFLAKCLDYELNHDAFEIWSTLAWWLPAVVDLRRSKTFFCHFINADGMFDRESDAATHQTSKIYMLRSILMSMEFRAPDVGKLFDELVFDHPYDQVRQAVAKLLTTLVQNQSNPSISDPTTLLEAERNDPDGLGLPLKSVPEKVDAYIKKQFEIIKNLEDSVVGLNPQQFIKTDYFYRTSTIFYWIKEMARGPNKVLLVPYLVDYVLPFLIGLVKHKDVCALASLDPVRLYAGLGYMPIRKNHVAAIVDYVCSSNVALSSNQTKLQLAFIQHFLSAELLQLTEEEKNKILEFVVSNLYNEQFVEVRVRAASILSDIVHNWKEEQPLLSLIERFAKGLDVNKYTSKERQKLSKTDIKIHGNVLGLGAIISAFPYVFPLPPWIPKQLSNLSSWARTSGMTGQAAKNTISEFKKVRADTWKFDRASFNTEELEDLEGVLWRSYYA

B1
binding result [1]: binds

B2
binding result [1]: binds

B3
binding result [2]: binds

B4
binding result [3]: binds
binding result [4]: binds

B5
binding result [1]: binds

B6
binding result [2]: binds

B7
binding result [5]: binds
